From US9238802B2, “E. coli transformant, method for producing flavin-bound glucose dehydrogenase using the same, and mutant flavin-bound glucose dehydrogenases” (KIKKOMAN CORPORATION, priority 2010, dated 2016)

B1: GOD derived from Aspergillus niger: commercial glucose oxidase derived from Aspergillus niger (GOD, biozyme laboratories) (protein, UniProt P13006 17-605, looked up)
Glucose oxidase: LPHYIRSNGIEASLLTDPKDVSGRTVDYIIAGGGLTGLTTAARLTENPNISVLVIESGSYESDRGPIIEDLNAYGDIFGSSVDHAYETVELATNNQTALIRSGNGLGGSTLVNGGTWTRPHKAQVDSWETVFGNEGWNWDNVAAYSLQAERARAPNAKQIAAGHYFNASCHGVNGTVHAGPRDTGDDYSPIVKALMSAVEDRGVPTKKDFGCGDPHGVSMFPNTLHEDQVRSDAAREWLLPNYQRPNLQVLTGQYVGKVLLSQNGTTPRAVGVEFGTHKGNTHNVYAKHEVLLAAGSAVSPTILEYSGIGMKSILEPLGIDTVVDLPVGLNLQDQTTATVRSRITSAGAGQGQAAWFATFNETFGDYSEKAHELLNTKLEQWAEEAVARGGFHNTTALLIQYENYRDWIVNHNVAYSELFLDTAGVASFDVWDLLPFTRGYVHILDKDPYLHHFAYDPQYFLNELDLLGQAAATQLARNISNSGAMQTYFAGETIPGDNLAYDADLSAWTEYIPYHFRPNYHGVGTCSMMPKEMGGVVDNAARVYGVQGLRVIDGSIPPTQMSSHVMTVFYAMALKISDAILEDYASMQ
B2: NS2: GDH with a deletion to the 20th Ala and the 21st Gln substituted by Met (SEQ ID NO: 25) (protein)
chain: MQDTNSSSTDTYDYVIVGGGVAGLALASRISENKDVTVAVLESGPNANDRFVVYAPGMYGQAVGTDLCPLIPTTPQENMGNRSLTIATGRLLGGGSAINGLVWTRGGLKDYDAWEELGNPGWNGANLFKYFKKVENFTPPTPAQIEYGATYQKSAHGKKGPIDVSFTNYEFSQSASWNASLETLDFTALPDILNGTLAGYSTTPNILDPETVQRVDSYTGYIAPYTSRNNLNVLANHTVSRIQFAPKNGSEPLKATGVEWYPTGNKNQKQIIKARYEVIISSGAIGSPKLLEISGIGNKDIVSAAGVESLIDLPGVGSNMQDHVHAITVSTTNITGYTTNSVFVNETLAQEQREEYEANKTGIWATTPNNLGYPTPEQLFNGTEFVSGKEFADKIRNSTDEWANYYASTNASNVELLKKQYAIVASRYEENYLSPIEINFTPGYEGSGNVDLQNNKYQTVNHVLIAPLSRGYTHINSSDVEDHSVINPQYYSHPMDIDVHIASTKLAREIITASPGLGDINSGEIEPGMNITSEDDLRSWLSNNVRSDWHPVGTCAMLPKELGGVVSPALMVYGTSNLRVVDASIMPLEVSSHLMQPTYGIAEKAADIIKNFYKTQHKNQN
modifications: NS2
B3: NS4: GDH with a deletion to the 27th Ser and the 28st Ser substituted by Met (SEQ ID NO: 32) (protein)
chain: MTDTYDYVIVGGGVAGLALASRISENKDVTVAVLESGPNANDRFVVYAPGMYGQAVGTDLCPLIPTTPQENMGNRSLTIATGRLLGGGSAINGLVWTRGGLKDYDAWEELGNPGWNGANLFKYFKKVENFTPPTPAQIEYGATYQKSAHGKKGPIDVSFTNYEFSQSASWNASLETLDFTALPDILNGTLAGYSTTPNILDPETVQRVDSYTGYIAPYTSRNNLNVLANHTVSRIQFAPKNGSEPLKATGVEWYPTGNKNQKQIIKARYEVIISSGAIGSPKLLEISGIGNKDIVSAAGVESLIDLPGVGSNMQDHVHAITVSTTNITGYTTNSVFVNETLAQEQREEYEANKTGIWATTPNNLGYPTPEQLFNGTEFVSGKEFADKIRNSTDEWANYYASTNASNVELLKKQYAIVASRYEENYLSPIEINFTPGYEGSGNVDLQNNKYQTVNHVLIAPLSRGYTHINSSDVEDHSVINPQYYSHPMDIDVHIASTKLAREIITASPGLGDINSGEIEPGMNITSEDDLRSWLSNNVRSDWHPVGTCAMLPKELGGVVSPALMVYGTSNLRVVDASIMPLEVSSHLMQPTYGIAEKAADIIKNFYKTQHKNQN
modifications: NS4
B4: NS1: GDH with a deletion to the 20th Ala and Met added to the 21st Gln (SEQ ID NO: 23) (protein)
chain: MQQDTNSSSTDTYDYVIVGGGVAGLALASRISENKDVTVAVLESGPNANDRFVVYAPGMYGQAVGTDLCPLIPTTPQENMGNRSLTIATGRLLGGGSAINGLVWTRGGLKDYDAWEELGNPGWNGANLFKYFKKVENFTPPTPAQIEYGATYQKSAHGKKGPIDVSFTNYEFSQSASWNASLETLDFTALPDILNGTLAGYSTTPNILDPETVQRVDSYTGYIAPYTSRNNLNVLANHTVSRIQFAPKNGSEPLKATGVEWYPTGNKNQKQIIKARYEVIISSGAIGSPKLLEISGIGNKDIVSAAGVESLIDLPGVGSNMQDHVHAITVSTTNITGYTTNSVFVNETLAQEQREEYEANKTGIWATTPNNLGYPTPEQLFNGTEFVSGKEFADKIRNSTDEWANYYASTNASNVELLKKQYAIVASRYEENYLSPIEINFTPGYEGSGNVDLQNNKYQTVNHVLIAPLSRGYTHINSSDVEDHSVINPQYYSHPMDIDVHIASTKLAREIITASPGLGDINSGEIEPGMNITSEDDLRSWLSNNVRSDWHPVGTCAMLPKELGGVVSPALMVYGTSNLRVVDASIMPLEVSSHLMQPTYGIAEKAADIIKNFYKTQHKNQN
modifications: NS1
B5: NS3: GDH with a deletion to the 27th Ser and Met added to the 28st Ser (SEQ ID NO: 30) (protein)
chain: MSTDTYDYVIVGGGVAGLALASRISENKDVTVAVLESGPNANDRFVVYAPGMYGQAVGTDLCPLIPTTPQENMGNRSLTIATGRLLGGGSAINGLVWTRGGLKDYDAWEELGNPGWNGANLFKYFKKVENFTPPTPAQIEYGATYQKSAHGKKGPIDVSFTNYEFSQSASWNASLETLDFTALPDILNGTLAGYSTTPNILDPETVQRVDSYTGYIAPYTSRNNLNVLANHTVSRIQFAPKNGSEPLKATGVEWYPTGNKNQKQIIKARYEVIISSGAIGSPKLLEISGIGNKDIVSAAGVESLIDLPGVGSNMQDHVHAITVSTTNITGYTTNSVFVNETLAQEQREEYEANKTGIWATTPNNLGYPTPEQLFNGTEFVSGKEFADKIRNSTDEWANYYASTNASNVELLKKQYAIVASRYEENYLSPIEINFTPGYEGSGNVDLQNNKYQTVNHVLIAPLSRGYTHINSSDVEDHSVINPQYYSHPMDIDVHIASTKLAREIITASPGLGDINSGEIEPGMNITSEDDLRSWLSNNVRSDWHPVGTCAMLPKELGGVVSPALMVYGTSNLRVVDASIMPLEVSSHLMQPTYGIAEKAADIIKNFYKTQHKNQN
modifications: NS3

Legend:
Type in all cases: biochemical
[1] = GDH activity of purified enzymes (DCIP/PMS assay); details: purified enzyme
Experimental: Specifically, the activities of the flavin-bound GDHs are measured according to the following procedures. To initiate a reaction, 1.79 mL of 100 mM phosphate buffer (pH7.0), 0.08 mL of 1.25 M D-glucose solution, and 0.01 mL of 20 mM DCIP solution are mixed, followed by incubation at 37° C. for 5 minutes, and, subsequently, 0.02 mL of 20 mM PMS solution and 0.1 mL of an enzyme sample solution are added. Absorbance is measured at the initiation of the reaction and over time to determine a decrease in the absorbance at 600 nm (ΔA600) per minute due to the progress of the enzyme reaction and calculate flavin-bound GDH activity according to the following formula. […]
Solutions were mixed according to the following procedures, followed by absorbance measurement to examine GDH activity in the crude enzyme solution. […] A decrease in the absorbance at 600 nm (ΔA600) per minute due to the progress of the enzyme reaction after the initiation of the reaction was determined to calculate GDH activity according to the following formula. […]
GDH activity was measured as described in Example 1. GOD activity was measured using 4-aminoantipyrine (4-AA) and N-ethyl-N-(2-hydroxy-3-sulfopropyl)-3-methylaniline (TOOS) as described below. […] An increase in the absorbance at 555 nm (ΔA555) per minute due to the progress of the enzyme reaction was determined to calculate GOD activity according to the following formula.

[2] = GOD activity (4-AA/TOOS/POD assay); details: 37° C., 131 mM D-glucose
Experimental: GDH activity was measured as described in Example 1. GOD activity was measured using 4-aminoantipyrine (4-AA) and N-ethyl-N-(2-hydroxy-3-sulfopropyl)-3-methylaniline (TOOS) as described below. To initiate a reaction, 30.0 mL of 100 mM phosphate buffer (pH 7.0), 6.0 mL of 833 mM D-glucose solution, 0.3 mL of 25 mM 4-AA solution, 0.3 mL of 40 mM TOOS solution, and 0.3 mL of 500 U/mL POD solution were mixed, of which 3.0 mL was transferred into a test tube and incubated at 37° C. for five minutes, and 0.1 mL of an enzyme sample solution was added. An increase in the absorbance at 555 nm (ΔA555) per minute due to the progress of the enzyme reaction was determined to calculate GOD activity according to the following formula.
The formula indicates 3.1 as the liquid volume (mL) of reaction reagent plus enzyme reagent, 32.8 as millimolar extinction coefficient (cm^2/μmol) under the activity assay conditions, 0.5 as the number of quinoneimine dye molecules generated when one H2O2 molecule is reduced, 0.1 as the liquid volume (mL) of an enzyme solution, 1.0 as the optical path length (cm) of a cell, ΔA555blank as an increase in the absorbance at 555 nm per minute when 10 mM acetate buffer, instead of an enzyme sample solution, is added to initiate a reaction, and df as a dilution factor.

[3] = Substrate specificity of GDHs produced by the E. coli transformant; details: according to Examples 3 and 5

| Molecule | GDH activity [1] [U/mL] | GOD activity [2] [U/mL] | substrate specificity (in words) [3] |
| --- | --- | --- | --- |
| B1 | 3.50 | 9.38 |  |
| B2 |  |  | almost comparable with that of the purified GDH obtained in Example 2 |
| B3 |  |  | almost comparable with that of the purified GDH obtained in Example 2 |
| B4 |  |  | almost comparable with that of the purified GDH obtained in Example 2 |
| B5 |  |  | almost comparable with that of the purified GDH obtained in Example 2 |
